What all share (test): SPR, Carterra LSA, antibody immobilised
Experiment [1] deals with T1, murine MerTK extracellular domain (ECD), recombinant (mouse, UniProt Q60805 19-497).
T1 construct: also called moMerTK; mouse MerTK; not shown: polyHis tag or TEVS/Thrombin/murine IgG2a Fc tag
T1 sequence: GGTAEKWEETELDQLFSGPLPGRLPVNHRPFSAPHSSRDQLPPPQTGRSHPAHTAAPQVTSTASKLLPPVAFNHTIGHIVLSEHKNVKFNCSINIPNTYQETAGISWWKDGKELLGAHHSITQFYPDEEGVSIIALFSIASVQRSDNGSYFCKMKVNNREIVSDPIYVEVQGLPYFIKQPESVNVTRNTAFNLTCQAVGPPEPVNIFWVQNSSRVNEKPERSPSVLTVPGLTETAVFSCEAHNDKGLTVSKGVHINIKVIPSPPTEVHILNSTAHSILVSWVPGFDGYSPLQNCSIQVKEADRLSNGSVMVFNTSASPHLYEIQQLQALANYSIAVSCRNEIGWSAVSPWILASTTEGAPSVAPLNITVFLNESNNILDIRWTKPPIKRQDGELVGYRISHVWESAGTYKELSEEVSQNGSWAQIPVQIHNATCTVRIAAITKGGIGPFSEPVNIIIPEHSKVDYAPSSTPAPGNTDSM
Here is the method:
(§1) Binding kinetics of humanized and affinity-matured anti-MerTK antibodies of the present disclosure to human, murine, and cynomolgus MerTK proteins were evaluated as follows. Briefly, anti-MerTK antibodies were prepared by diluting to 10 μg/ml in 10 mM Acetate, pH 4.25 (Carterra, Salt Lake City, Utah), at 300 μl/well. A HC200M sensor chip (Carterra) was activated using the single channel flow cell with a 7-minute injection of a 1:1:1 mixture of 100 mM MES pH 5.5, 100 mM sulfo-NHS, 400 mM EDC (all reconstituted in MES pH 5.5; 100 μl of each mixed in vial immediately before running assay). After switching to the multi-channel array flow cell, the antibodies were injected over the activated chip in a 96-spot array for 15 minutes. The remaining unconjugated active groups on the chip were then blocked by injecting 1M Ethanolamine pH 8.5 (Carterra) for 7 minutes using the single channel flow cell.
(§2) Estimates of affinity were generated by injecting each analyte over the entire antibody array using the single channel flow cell. MerTK analytes were diluted to 33.3, 100, and 300 nM in running buffer, and injected in serial from lowest to highest concentration without regeneration. Two buffer blanks were run between each series (one species per series). Data were processed and analyzed using NextGenKIT high-throughput kinetics analysis software (Carterra). In these experiments, the anti-MerTK antibodies were human IgG1 isotype containing the Fc variant LALAPS.
(§3) The equilibrium dissociation constants (KD) were then calculated from the fitted association and dissociation rate constants (k-on and k-off) for anti-MerTK antibodies of the present disclosure.

Experiment [2] addresses T2, human MerTK extracellular domain (ECD), recombinant (human, UniProt Q12866 21-505).
T2 construct: also called huMerTK; not shown: polyHis tag or TEVS/Thrombin/murine IgG2a Fc tag
T2 sequence: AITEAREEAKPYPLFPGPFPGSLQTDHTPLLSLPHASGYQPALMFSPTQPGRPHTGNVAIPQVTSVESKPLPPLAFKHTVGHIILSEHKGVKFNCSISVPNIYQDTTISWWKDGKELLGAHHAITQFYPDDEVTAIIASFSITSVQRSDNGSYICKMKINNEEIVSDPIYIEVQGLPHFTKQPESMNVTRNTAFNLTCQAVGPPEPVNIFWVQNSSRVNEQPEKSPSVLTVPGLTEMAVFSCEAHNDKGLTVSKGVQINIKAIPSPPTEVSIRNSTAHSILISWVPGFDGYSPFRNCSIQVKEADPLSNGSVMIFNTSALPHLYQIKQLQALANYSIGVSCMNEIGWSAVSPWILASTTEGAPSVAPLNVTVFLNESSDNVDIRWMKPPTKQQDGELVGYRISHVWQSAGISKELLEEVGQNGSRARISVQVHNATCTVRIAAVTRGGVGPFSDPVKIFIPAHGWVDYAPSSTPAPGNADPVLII
The procedure: as §1, §2, §3

The target of experiment [3] is T3, cyno MerTK extracellular domain (ECD), recombinant (cynomolgus monkey, UniProt Q12866 21-505 (human entry)).
T3 construct: also called cynomolgus MerTK; not shown: polyHis tag or TEVS/Thrombin/murine IgG2a Fc tag
T3 chain: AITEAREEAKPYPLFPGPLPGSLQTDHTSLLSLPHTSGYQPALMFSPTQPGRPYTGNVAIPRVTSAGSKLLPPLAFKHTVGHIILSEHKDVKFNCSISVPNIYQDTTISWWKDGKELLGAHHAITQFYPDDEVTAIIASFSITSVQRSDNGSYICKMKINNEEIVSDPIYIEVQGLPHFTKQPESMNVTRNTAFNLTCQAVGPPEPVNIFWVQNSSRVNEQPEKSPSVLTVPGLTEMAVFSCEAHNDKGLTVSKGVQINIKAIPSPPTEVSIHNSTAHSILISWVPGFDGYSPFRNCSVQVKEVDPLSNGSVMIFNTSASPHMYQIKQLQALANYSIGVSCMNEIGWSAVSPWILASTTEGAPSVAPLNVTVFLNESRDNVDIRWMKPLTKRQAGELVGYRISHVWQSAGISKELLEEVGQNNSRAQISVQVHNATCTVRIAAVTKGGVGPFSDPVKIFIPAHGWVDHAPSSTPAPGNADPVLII
The procedure: as §1, §2, §3

B1: MTK-15.4 (antibody, human IgG1, V domains shown)
VH: QVQLVQSGSELKKPGASVKVSCKASGYTFTNYGVHWVRQAPGQGLEWMGWINTYTGEPTYAQGFTGRFVFSLDTSVSTAYLQISSLKAEDTAVYYCARGNRYAYMDYWGQGTLVTVSS
VL: EIVLTQSPATLSLSPGERATLSCRASSSVGYMHWYQQKPGQAPRPLIYATSNLASGIPARFSGSGSGTSYTLTISSLEPEDFAVYYCQQWSSNPRTFGGGTKVEIK
Consider B1, for which the binding result in experiment [1] was “no binding (tested: 300 nM)”.

B2: MTK-15.1 (antibody, human IgG1, V domains shown)
VH: QVQLVQSGSELKKPGASVKVSCKASGYTFTNYGVHWVRQAPGQGLEWMGWINTYTGEPTYAQGFTGRFVFSLDTSVSTAYLQISSLKAEDTAVYYCARGNRYAYQDYWGQGTLVTVSS
VL: EIVLTQSPATLSLSPGERATLSCRASSSVSYMHWYQQKPGQAPRPLIYATSNLASGIPARFSGSGSGTSYTLTISSLEPEDFAVYYCQQWSSNPRTFGGGTKVEIK
With B2, the Kd was 8.3 nM in experiment [2] and 8 nM in experiment [3].

B3: MTK-15.10 (antibody, human IgG1, V domains shown)
VH: QVQLVQSGSELKKPGASVKVSCKASGYTFANYGVHWVRQAPGQGLEWMGWINTYQGEPTYAQGFTGRFVFSLDTSVSTAYLQISSLKAEDTAVYYCTRGARYAYMDYWGQGTLVTVSS
VL: EIVLTQSPATLSLSPGERATLSCRASSSVGYMHWYQQKPGQAPRPLIYATSNLASGIPARFSGSGSGTSYTLTISSLEPEDFAVYYCQQWSSNPRTFGGGTKVEIK
Regarding B3, the figures for the Kd in experiment [2], in experiment [3] and in experiment [1] were 3.3 nM, 3.3 nM and 2800 nM, respectively.

B4: MTK-15.5 (antibody, human IgG1, V domains shown)
VH: QVQLVQSGSELKKPGASVKVSCKASGYTFTNYGVHWVRQAPGQGLEWMGWINTYTGEPTYAQGFTGRFVFSLDTSVSTAYLQISSLKAEDTAVYYCTRGTRYAYMDYWGQGTLVTVSS
VL: EIVLTQSPATLSLSPGERATLSCRASSSVGYMHWYQQKPGQAPRPLIYATSNLASGIPARFSGSGSGTSYTLTISSLEPEDFAVYYCQQWSSNPRTFGGGTKVEIK
On to B4, for which the Kd in experiment [2] came out at 0.1 nM; in experiment [3], 0.8 nM; in experiment [1], 690 nM.

B5: MTK-15.3 (antibody, human IgG1, V domains shown)
VH: QVQLVQSGSELKKPGASVKVSCKASGYTFTNYGVHWVRQAPGQGLEWMGWINTYTGEPTYAQGFTGRFVFSLDTSVSTAYLQISSLKAEDTAVYYCARGNRYAYMDYWGQGTLVTVSS
VL: EIVLTQSPATLSLSPGERATLSCRASSHVSYMHWYQQKPGQAPRPLIYATSNLASGIPARFSGSGSGTSYTLTISSLEPEDFAVYYCQQWSSNPRTFGGGTKVEIK
Regarding B5, the Kd in experiment [2] was 21.5 nM; in experiment [3] it was 23 nM. Also, the binding result in experiment [1] is “no binding (tested: 300 nM)”.

B6: MTK-15.6 (antibody, human IgG1, V domains shown)
VH: QVQLVQSGSELKKPGASVKVSCKASGYTFTNYGVHWVRQAPGQGLEWMGWINTYTGEPYYAQGFTGRFVFSLDTSVSTAYLQISSLKAEDTAVYYCARGNRYAYMDYWGQGTLVTVSS
VL: EIVLTQSPATLSLSPGERATLSCRASSSVGYMHWYQQKPGQAPRPLIYATSNLASGIPARFSGSGSGTSYTLTISSLEPEDFAVYYCQQWSSNPRTFGGGTKVEIK
On to B6, for which the Kd in experiment [2] is 1 nM; in experiment [3] it was 1.5 nM.

B7: MTK-15.8 (antibody, human IgG1, V domains shown)
VH: QVQLVQSGSELKKPGASVKVSCKASGYTFTNYGVHWVRQAPGQGLEWMGWINTYTGEPTYAQGFTGRFVFSLDTSVSTAYLQISSLKAEDTAVYYCARGVRYAYMDYWGQGTLVTVSS
VL: EIVLTQSPATLSLSPGERATLSCRASSSVGYMHWYQQKPGQAPRPLIYATSNLASGIPARFSGSGSGTSYTLTISSPEPEDFAVYYCQQWSSNPRTFGGGTKVEIK
In the case of B7, the Kd in experiment [2] was 4.9 nM; in experiment [3], 5 nM. In addition, in experiment [1], the binding result was “no binding (tested: 300 nM)”.

B8: MTK-15.7 (antibody, human IgG1, V domains shown)
VH: QVQLVQSGSELKKPGASVKVSCKASGYTFTNYGVHWVRQAPGQGLEWMGWINTYTGEPTYAQGFTGRFVFSLDTSVSTAYLQISSLKAEDTAVYYCVRGNRYAYMDYWGQGTLVTVSS
VL: EIVLTQSPATLSLSPGERATLSCRASSGVSYMHWYQQKPGQAPRPLIYATSNLASGIPARFSGSGSGTSYTLTISSLEPEDFAVYYCQQWSSNPRTFGGGTKVEIK
For B8, the Kd in experiment [2] worked out at 0.1 nM; in experiment [3] it was 0.3 nM; in experiment [1], 705 nM.

B9: MTK-15.12 (antibody, human IgG1, V domains shown)
VH: QVQLVQSGSELKKPGASVKVSCKASGYTFANYGVHWVRQAPGQGLEWMGWINTYQGEPTYAQGFTGRFVFSLDTSVSTAYLQISSLKAEDTAVYYCARGVRYAYMDYWGQGTLVTVSS
VL: EIVLTQSPATLSLSPGERATLSCRASSSVGYMHWYQQKPGQAPRPLIYATSNLASGIPARFSGSGSGTSYTLTISSPEPEDFAVYYCQQWSSNPRTFGGGTKVEIK
As to B9, the Kd in experiment [2] is 17.5 nM; in experiment [3] it was 18 nM; in experiment [1], 114 nM.

B10: MTK-15.2 (antibody, human IgG1, V domains shown)
VH: QVQLVQSGSELKKPGASVKVSCKASGYTFTNYGVHWVRQAPGQGLEWMGWGNTYTGEPTYAQGFTGRFVFSLDTSVSTAYLQISSLKAEDTAVYYCARGNRYAYMDYWGQGTLVTVSS
VL: EIVLTQSPATLSLSPGERATLSCRASSSVSYMHWYQQKPGQAPRPLIYATSNLASGIPARFSGSGSGTSYTLTISSLEPEDFAVYYCQQWSSNPRTFGGGTKVEIK
In the case of B10, the Kd in experiment [2] and in experiment [3] was 21.5 nM throughout. Moreover, the binding result in experiment [1] is reported as “no binding (tested: 300 nM)”.

B11: MTK-15.11 (antibody, human IgG1, V domains shown)
VH: QVQLVQSGSELKKPGASVKVSCKASGYTFANYGVHWVRQAPGQGLEWMGWINTYEGEPTYAQGFTGRFVFSLDTSVSTAYLQISSLKAEDTAVYYCARGNRYAYQDYWGQGTLVTVSS
VL: EIVLTQSPATLSLSPGERATLSCRASSSVSYMHWYQQKPGQAPRPLIYATSNLASGIPARFSGSGSGTSYTLTISSLEPEDFAVYYCQQWSSNPRTFGGGTKVEIK
With B11, the Kd in experiment [2] was found to be 12.5 nM; in experiment [3] it was 12.5 nM; in experiment [1] it was 140 nM.

B12: MTK-15.9 (antibody, human IgG1, V domains shown)
VH: QVQLVQSGSELKKPGASVKVSCKASGYTFTNYGVHWVRQAPGQGLEWMGWINTYTGEPTYAQGFTGRFVFSLDTSVSTAYLQISSLKAEDTAVYYCARGYRYAYMDYWGQGTLVTVSS
VL: EIVLTQSPATLSLSPGERATLSCRASSSTSYMHWYQQKPGQAPRPLIYATSNLASGIPARFSGSGSGTSYTLTISSLEPEDFAVYYCQQWSSNPRTFGGGTKVEIK
With B12, the values for the Kd in experiment [2], in experiment [3] and in experiment [1] were 10 nM, 11.5 nM and 850 nM, respectively.

For the origin of these results see patent publication US20210261685A1 (Alector, published 2021).
